Consider 36 variants from the Human Domainome abundance scans (Beltran et al. 2025).

± gives the uncertainty stated by the source.

To fix the notation:
B1: Mineralocorticoid receptor, residues 600 to 675; numbered along this chain, P08235 (parent)
chain: SKICLVCGDEASGCHYGVVTCGSCKVFFKRAVEGQHNYLCAGRNDCIIDKIRRKNCPACRLQKCLQAGMNLGARKS

The data set covers variants of B1. The data set is described as follows: abundance fitness (aPCA) (normalised: wild type 0, dead -1); higher = more abundant; growth selection in yeast, the domain comes from the species named. To be noted: Homo sapiens.
With SKICLVCGDEASGCHYGVVTCGSCAVFFKRAVEGQHNYLCAGRNDCIIDKIRRKNCPACRLQKCLQAGMNLGARKS [K25A], the abundance fitness is -0.065 ± 0.042.
For SKICLVCGDEASGCHYGVVTCGSCEVFFKRAVEGQHNYLCAGRNDCIIDKIRRKNCPACRLQKCLQAGMNLGARKS [K25E], the abundance fitness is -0.01 ± 0.051.
As to SKICLVCGDEASGCHYGVVTCGSCFVFFKRAVEGQHNYLCAGRNDCIIDKIRRKNCPACRLQKCLQAGMNLGARKS [K25F], the abundance fitness was -0.112 ± 0.099.
For SKICLVCGDEASGCHYGVVTCGSCDVFFKRAVEGQHNYLCAGRNDCIIDKIRRKNCPACRLQKCLQAGMNLGARKS [K25D], the abundance fitness is -0.087 ± 0.075.
As for SKICLVCGDEASGCHYGVVTCGSCCVFFKRAVEGQHNYLCAGRNDCIIDKIRRKNCPACRLQKCLQAGMNLGARKS [K25C], the figure is -0.022 ± 0.063.
Regarding SKICLVCGDEASGCHYGVVTCGACKVFFKRAVEGQHNYLCAGRNDCIIDKIRRKNCPACRLQKCLQAGMNLGARKS [S23A], the abundance fitness was -0.125 ± 0.054.
Regarding SKICLVCGDEASGCHYGVVTCGECKVFFKRAVEGQHNYLCAGRNDCIIDKIRRKNCPACRLQKCLQAGMNLGARKS [S23E], the abundance fitness was found to be 0.003 ± 0.053.
Take SKICLVCGDEASGCHYGVVTCGFCKVFFKRAVEGQHNYLCAGRNDCIIDKIRRKNCPACRLQKCLQAGMNLGARKS [S23F]: the abundance fitness is -0.168 ± 0.083.
The result for SKICLVCGDEASGCHYGVVTCGDCKVFFKRAVEGQHNYLCAGRNDCIIDKIRRKNCPACRLQKCLQAGMNLGARKS [S23D] reads 0.01 ± 0.097; that for SKICLVCGDEASGCHYGVVTCGPCKVFFKRAVEGQHNYLCAGRNDCIIDKIRRKNCPACRLQKCLQAGMNLGARKS [S23P], 0.026 ± 0.067.
Consider SKICLVCGDEASGCHYGVVTCGICKVFFKRAVEGQHNYLCAGRNDCIIDKIRRKNCPACRLQKCLQAGMNLGARKS [S23I], for which the abundance fitness was -0.42 ± 0.37.
Turning to SKICLVCGDEASGCHYGVVTCGWCKVFFKRAVEGQHNYLCAGRNDCIIDKIRRKNCPACRLQKCLQAGMNLGARKS [S23W], the abundance fitness was -0.193 ± 0.076.
The result for SKICLVCGDEASGCHYGVVTCGGCKVFFKRAVEGQHNYLCAGRNDCIIDKIRRKNCPACRLQKCLQAGMNLGARKS [S23G] reads 0.009 ± 0.045; that for SKICLVCGDEASGCHYGVVTCGKCKVFFKRAVEGQHNYLCAGRNDCIIDKIRRKNCPACRLQKCLQAGMNLGARKS [S23K], -0.007 ± 0.072; that for SKICLVCGDEASGCHYGVVTCGMCKVFFKRAVEGQHNYLCAGRNDCIIDKIRRKNCPACRLQKCLQAGMNLGARKS [S23M], -0.085 ± 0.067.
As for SKICLVCGDEASGCHYGVVTCGCCKVFFKRAVEGQHNYLCAGRNDCIIDKIRRKNCPACRLQKCLQAGMNLGARKS [S23C], the figure is -0.253 ± 0.11.
The result for SKICLVCGDEASGCHYGVVTCGQCKVFFKRAVEGQHNYLCAGRNDCIIDKIRRKNCPACRLQKCLQAGMNLGARKS [S23Q] reads -0.013 ± 0.073; that for SKICLVCGDEASGCHYGVVTCGNCKVFFKRAVEGQHNYLCAGRNDCIIDKIRRKNCPACRLQKCLQAGMNLGARKS [S23N], 0.051 ± 0.12; that for SKICLVCGDEASGCHYGVVTCGYCKVFFKRAVEGQHNYLCAGRNDCIIDKIRRKNCPACRLQKCLQAGMNLGARKS [S23Y], -0.038 ± 0.09.
In the case of SKICLVCGDEASGCHYGVVTCGHCKVFFKRAVEGQHNYLCAGRNDCIIDKIRRKNCPACRLQKCLQAGMNLGARKS [S23H], the abundance fitness is -0.143 ± 0.15.
In the case of SKICLVCGDEASGCHYGVVTCGLCKVFFKRAVEGQHNYLCAGRNDCIIDKIRRKNCPACRLQKCLQAGMNLGARKS [S23L], the abundance fitness is -0.104 ± 0.06.
On to SKICLVCGDEASGCHYGVVTCGTCKVFFKRAVEGQHNYLCAGRNDCIIDKIRRKNCPACRLQKCLQAGMNLGARKS [S23T], for which the abundance fitness is -0.164 ± 0.069.
The result for SKICLVCGDEASGCHYGVVTQGSCKVFFKRAVEGQHNYLCAGRNDCIIDKIRRKNCPACRLQKCLQAGMNLGARKS [C21Q] reads -0.567 ± 0.17; that for SKICLVCGDEASGCHYGVVTWGSCKVFFKRAVEGQHNYLCAGRNDCIIDKIRRKNCPACRLQKCLQAGMNLGARKS [C21W], -1.22 ± 0.26.
In the case of SKICLVCGDEASGCHYGVVTPGSCKVFFKRAVEGQHNYLCAGRNDCIIDKIRRKNCPACRLQKCLQAGMNLGARKS [C21P], the abundance fitness is -1.05 ± 0.19.
For the variant SKICLVCGDEASGCHYGVVTGGSCKVFFKRAVEGQHNYLCAGRNDCIIDKIRRKNCPACRLQKCLQAGMNLGARKS [C21G], the abundance fitness was -1.03 ± 0.13.
As to SKICLVCGDEASGCHYGVVTMGSCKVFFKRAVEGQHNYLCAGRNDCIIDKIRRKNCPACRLQKCLQAGMNLGARKS [C21M], the abundance fitness was -0.969 ± 0.2.
The result for SKICLVCGDEASGCHYGVVTTGSCKVFFKRAVEGQHNYLCAGRNDCIIDKIRRKNCPACRLQKCLQAGMNLGARKS [C21T] reads -1.22 ± 0.26; that for SKICLVCGDEASGCHYGVVTAGSCKVFFKRAVEGQHNYLCAGRNDCIIDKIRRKNCPACRLQKCLQAGMNLGARKS [C21A], -0.977 ± 0.16; that for SKICLVCGDEASGCHYGVVTEGSCKVFFKRAVEGQHNYLCAGRNDCIIDKIRRKNCPACRLQKCLQAGMNLGARKS [C21E], -0.854 ± 0.11.
Take SKICLVCGDEASGCHYGVVTVGSCKVFFKRAVEGQHNYLCAGRNDCIIDKIRRKNCPACRLQKCLQAGMNLGARKS [C21V]: the abundance fitness was -1.11 ± 0.16.
In the case of SKICLVCGDEASGCHYGVVTYGSCKVFFKRAVEGQHNYLCAGRNDCIIDKIRRKNCPACRLQKCLQAGMNLGARKS [C21Y], the abundance fitness was -0.731 ± 0.32.
Regarding SKICLVCGDEASGCHYGVVTKGSCKVFFKRAVEGQHNYLCAGRNDCIIDKIRRKNCPACRLQKCLQAGMNLGARKS [C21K], the abundance fitness was -1.25 ± 0.32.
On to SKICLVCGDEASGCHYGVVTFGSCKVFFKRAVEGQHNYLCAGRNDCIIDKIRRKNCPACRLQKCLQAGMNLGARKS [C21F], for which the abundance fitness was -0.515 ± 0.19.
For the variant SKICLVCGDEASGCHYGVVTRGSCKVFFKRAVEGQHNYLCAGRNDCIIDKIRRKNCPACRLQKCLQAGMNLGARKS [C21R], the abundance fitness was -0.962 ± 0.11.
The result for SKICLVCGDEASGCHYGVVTIGSCKVFFKRAVEGQHNYLCAGRNDCIIDKIRRKNCPACRLQKCLQAGMNLGARKS [C21I] reads -0.803 ± 0.26.
